Assay results published in publication PMC11455619.

Biological target: septin-7 (commercially purified, LSBio) (UniProt Q16181)
Assay: MST

Chain of septin-7 (commercially purified, LSBio) (Q16181 whole entry): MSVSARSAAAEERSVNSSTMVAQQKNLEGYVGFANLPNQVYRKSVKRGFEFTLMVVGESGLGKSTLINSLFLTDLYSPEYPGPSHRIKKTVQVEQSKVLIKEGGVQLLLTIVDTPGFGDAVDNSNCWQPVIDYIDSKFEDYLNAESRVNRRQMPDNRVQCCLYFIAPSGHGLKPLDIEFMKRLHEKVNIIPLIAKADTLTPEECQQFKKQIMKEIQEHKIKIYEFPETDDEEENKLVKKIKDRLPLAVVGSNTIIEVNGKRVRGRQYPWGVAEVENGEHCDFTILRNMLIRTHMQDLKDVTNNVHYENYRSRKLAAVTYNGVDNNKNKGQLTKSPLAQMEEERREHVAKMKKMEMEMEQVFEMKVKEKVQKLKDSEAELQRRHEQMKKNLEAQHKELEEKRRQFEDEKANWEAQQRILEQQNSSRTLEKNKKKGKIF

Kd: 7.48 µM
Substance: SOD1 trimer, HG trimer-stabilising mutant (printed as H46G-G108H and as H46Q-G108H) (from UniProt P00441 1-154) (enzyme)
